Data from PMC3270550.

Target: HIV-1 envelope glycoprotein gp120 (UniProt P04578)
Assay: binding assay (method not named in legend)
Details: read off a plot; for other: relative affinity (hCD4-M = 1): parent: est. 0.63

mCD4-M, murine CD4 mimetic peptide (residues 22-66) I23C; E65C
other: relative affinity (hCD4-M = 1): 4

hCD4-M, human CD4 mimetic peptide (residues 22-64), N-terminal Cys form F43A; R58A; R59A
ratio to parent (parent: 1): 0.24

mCD4-M, murine CD4 mimetic peptide (residues 22-66) V44A; K60A; K61A
other: relative affinity (hCD4-M = 1): 0.14
